Results: patent US20140287471A1, “VARIANT CBH I POLYPEPTIDES WITH REDUCED PRODUCT INHIBITION” (BP CORPORATION NORTN AMERICA INC., priority 2011, published 2014)
Substitutions are numbered along the chain they refer to. Names and notes keep the numbering of the source. Where two headings read alike, the source gives them in different places.

Assays:
Assay type in all cases: biochemical
[1] = 4-MUL cellobiose tolerance/inhibition assay, dose-response IC50 (Example 2); conditions: for 268 +411A Expected IC50: expected IC50 (additive values of single mutations); for 268_+411A Synergistic**↑: measured versus expected additive IC50
Method in brief: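 IC50 reflects cellobiose concentration halving activity, fitted by four-parameter dose-response with zero activity fixed at knockout-strain background. Assays used 4-MUL (0.5 mM) with enzyme at 5 μg/mL or less, pH 6 MES, 25 mM gluconolactone blocking BG, cellobiose up to 100 mM; 4-MU fluorescence read.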

[2] = 4-MUL assay, specific activity (Example 2); conditions: for 268— +411 A Measured Specific Activity (SA) / 268— +411 A Δ SA* (change in specific activity; ratio of variant: WT): double mutant 268X+411A; for 268— Measured Specific Activity (SA) / 268— Δ SA* (change in specific activity; ratio of variant: WT): 268 single substitution
Method in brief: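 Specific activity derived from 4-MU standard curves and HPLC-quantified enzyme. Initial rates were taken over the first 15 min, with an endpoint read at 1 h (pH 10 carbonate quench), all at ex 365/em 450 nm. Conditions: 0.5 mM 4-MUL, 5 μg/mL enzyme, MES pH 6, 25 mM gluconolactone, cellobiose optional.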

[3] = Saccharification assay (bagasse assay) with and without β-glucosidase (Example 1); conditions: T. reesei CBH I variants; activity without β-glucosidase (BG) relative to with BG
Description: This assay measures the activity of CBH I on bagasse, a lignocellulosic substrate. Reactions were run in 10 ml vials with 5% dilute acid pretreated bagasse (250 mg solids per 5 ml reaction). Each reaction contained 4 mg CBH I enzyme/g solids, 200 mM MES pH 6, kanamycin, and chloramphenicol. Reactions were incubated at 35° C. in hybridization incubators (Robbins Scientific), rotating at 20 RPM. Time points were taken by transferring a sample of homogenous slurry (150 μl) into a 96-well deep well plate and quenching the reaction with stop buffer (450 μl of 500 mM sodium carbonate, pH 10). Time point measurements were taken every 24 hours for 72 hours.
Tolerance to cellobiose (or inhibition caused by cellobiose) was tested in two ways in the CBH I assays. A direct-dose tolerance method can be applied to all of the CBH I assays (i.e., 4-MUL, PASC, and/or bagasse assays), and entails the exogenous addition of a known amount of cellobiose into assay mixtures. A different indirect method entails the addition of an excess amount of β-glucosidase (BG) to PASC and bagasse assays (typically, 1 mg β-glucosidase/g solids loaded). BG will enzymatically hydrolyze the cellobiose generated during these assays; therefore, CBH I activity in the presence of BG can be taken as a measure of activity in the absence of cellobiose. Furthermore, when activity in the presence and absence of BG are similar, this indicates tolerance to cellobiose.

[4] = double mutant 268X+411A, averaged IC50 from Tables 8-11, read-out: 268_+411A Measured (merged IC50)
[5] = 411 single substitution, averaged IC50 from Tables 8-11, read-out: 411— Measured (merged IC50)
[6] = 268 single substitution, averaged IC50 from Tables 8-11, read-out: 268— Measured (merged IC50)
[7] = Secondary screening, CBH I levels normalized to 5 μg/mL, cellobiose range 0.00085-100 mM, read-out: IC50
[8] = secondary screening, CBH I levels normalized to 5 μg/mL, cellobiose range 0.0001-100 mM, read-out: Average IC50

B1: 268His+411A (protein, UniProt P62694 18-513, looked up, variant R268H R411A)
Exoglucanase 1: QSACTLQSETHPPLTWQKCSSGGTCTQQTGSVVIDANWRWTHATNSSTNCYDGNTWSSTLCPDNETCAKNCCLDGAAYASTYGVTTSGNSLSIGFVTQSAQKNVGARLYLMASDTTYQEFTLLGNEFSFDVDVSQLPCGLNGALYFVSMDADGGVSKYPTNTAGAKYGTGYCDSQCPRDLKFINGQANVEGWEPSSNNANTGIGGHGSCCSEMDIWEANSISEALTPHPCTTVGQEICEGDGCGGTYSDNHYGGTCDPDGCDWNPYRLGNTSFYGPGSSFTLDTTKKLTVVTQFETSGAINRYYVQNGVTFQQPNAELGSYSGNELNDDYCTAEEAEFGGSSFSDKGGLTQFKKATSGGMVLVMSLWDDYYANMLWLDSTYPTNETSSTPGAVAGSCSTSSGVPAQVESQSPNAKVTFSNIKFGPIGSTGNPSGGNPPGGNRGTTTTRRPATTTGSSPGPTQSHYGQCGGIGYSGPTVCASGTTCQVLNPYYSQCL
IC50 [1, 4]: 5270 µM | 268 +411A Expected IC50 ([1]; double mutant 268X+411A): 1410 µM | 268_+411A Synergistic**↑ ([1]; double mutant 268X+411A): 3.7 | 268— +411 A Measured Specific Activity (SA) [2]: 1.35 μmol 4 MU/min/mg CBH I | 268— +411 A Δ SA* (change in specific activity; ratio of variant: WT) [2]: 1.8

B2: 268Cys+411A (protein, UniProt P62694 18-513, looked up, variant R268C R411A)
Exoglucanase 1: B1 Exoglucanase 1 with H251C
268 +411A Expected IC50 ([1]; double mutant 268X+411A): 1560 µM | 268_+411A Synergistic**↑ ([1]; double mutant 268X+411A): 14.4 | 268— +411 A Δ SA* (change in specific activity; ratio of variant: WT) [2]: 0.2

B3: 411Val (protein, UniProt P62694 18-513, looked up, variant R411V)
Exoglucanase 1: B1 Exoglucanase 1 with H251R, A394V
IC50 [1, 5]: 3160 µM | 411— Measured Specific Activity (SA) ([2]; 411 single substitution): 0.65 μmol 4 MU/min/mg CBH I | 411— Δ SA* (change in specific activity; ratio of variant: WT) ([2]; 411 single substitution): 0.9

B4: 268A+411Ile (protein, UniProt P62694 18-513, looked up, variant R268A R411I)
Exoglucanase 1: B1 Exoglucanase 1 with H251A, A394I
IC50 ([1]; double mutant 268A+411X, averaged IC50 from Tables 8-11, read-out: 268A+411— Measured (merged IC50)): 32700 µM | 268A+411— Δ SA* (change in specific activity; ratio of variant: WT) ([2]; double mutant 268A+411X): 0.5

B5: 268Gln+411A (protein, UniProt P62694 18-513, looked up, variant R268Q R411A)
Exoglucanase 1: B1 Exoglucanase 1 with H251Q
IC50 [1, 4]: 9130 µM | 268— +411 A Measured Specific Activity (SA) [2]: 2.13 μmol 4 MU/min/mg CBH I | 268— +411 A Δ SA* (change in specific activity; ratio of variant: WT) [2]: 2.8

B6: 268Ala (protein, UniProt P62694 18-513, looked up, variant R268A)
Exoglucanase 1: B1 Exoglucanase 1 with H251A, A394R
IC50 [1, 6]: 570 µM | 268— Measured Specific Activity (SA) [2]: 2.97 μmol 4 MU/min/mg CBH I | 268— Δ SA* (change in specific activity; ratio of variant: WT) [2]: 3.9

B7: 411Leu (protein, UniProt P62694 18-513, looked up, variant R411L)
Exoglucanase 1: B1 Exoglucanase 1 with H251R, A394L
IC50 [1, 5]: 6540 µM | 411— Δ SA* (change in specific activity; ratio of variant: WT) ([2]; 411 single substitution): 0.2

B8: 268Leu (protein, UniProt P62694 18-513, looked up, variant R268L)
Exoglucanase 1: B1 Exoglucanase 1 with H251L, A394R
IC50 [1, 6]: 450 µM | 268— Measured Specific Activity (SA) [2]: 1.83 μmol 4 MU/min/mg CBH I | 268— Δ SA* (change in specific activity; ratio of variant: WT) [2]: 2.4

B9: 268Ser+411A (protein, UniProt P62694 18-513, looked up, variant R268S R411A)
Exoglucanase 1: B1 Exoglucanase 1 with H251S
IC50 [1, 4]: 9570 µM | 268 +411A Expected IC50 ([1]; double mutant 268X+411A): 1670 µM | 268_+411A Synergistic**↑ ([1]; double mutant 268X+411A): 5.7 | 268— +411 A Measured Specific Activity (SA) [2]: 1.59 μmol 4 MU/min/mg CBH I | 268— +411 A Δ SA* (change in specific activity; ratio of variant: WT) [2]: 2.1

B10: 268Lys+411A (protein, UniProt P62694 18-513, looked up, variant R268K R411A)
Exoglucanase 1: B1 Exoglucanase 1 with H251K
IC50 [1, 4]: 6140 µM | 268 +411A Expected IC50 ([1]; double mutant 268X+411A): 1290 µM | 268_+411A Synergistic**↑ ([1]; double mutant 268X+411A): 4.8 | 268— +411 A Δ SA* (change in specific activity; ratio of variant: WT) [2]: 0.7

B11: 268Pro+411A (protein, UniProt P62694 18-513, looked up, variant R268P R411A)
Exoglucanase 1: B1 Exoglucanase 1 with H251P
IC50 [1, 4]: 8570 µM | 268 +411A Expected IC50 ([1]; double mutant 268X+411A): 1700 µM | 268_+411A Synergistic**↑ ([1]; double mutant 268X+411A): 5.1 | 268— +411 A Measured Specific Activity (SA) [2]: 2.16 μmol 4 MU/min/mg CBH I | 268— +411 A Δ SA* (change in specific activity; ratio of variant: WT) [2]: 2.8

B12: 268Phe (protein, UniProt P62694 18-513, looked up, variant R268F)
Exoglucanase 1: B1 Exoglucanase 1 with H251F, A394R
IC50 [1, 6]: 480 µM | 268— Δ SA* (change in specific activity; ratio of variant: WT) [2]: 0.5

B13: 411A: CBH I variant with site 411 mutated to alanine (protein, listed as Trichoderma reesei)
chain: QSACTLQSETHPPLTWQKCSSGGTCTQQTGSVVIDANWRWTHATNSSTNCYDGNTWSSTLCPDNETCAKNCCLDGAAYASTYGVTTSGNSLSIGFVTQSAQKNVGARLYLMASDTTYQEFTLLGNEFSFDVDVSQLPCGLNGALYFVSMDADGGVSKYPTNTAGAKYGTGYCDSQCPRDLKFINGQANVEGWEPSSNNANTGIGGHGSCCSEMDIWEANSISEALTPHPCTTVGQEICEGDGCGGTYSDNRYGGTCDPDGCDWNPYRLGNTSFYGPGSSFTLDTTKKLTVVTQFETSGAINRYYVQNGVTFQQPNAELGSYSGNELNDDYCTAEEAEFGGSSFSDKGGLTQFKKATSGGMVLVMSLWDDYYANMLWLDSTYPTNETSSTPGAVAGSCSTSSGVPAQVESQSPNAKVTFSNIKFGPIGSTGNPSGGNPPGGNPPGTTTTRRPATTTGSSPGPTQSHYGQCGGIGYSGPTVCASGTTCQVLNPYYSQCL
Tolerance to cellobiose accumulation % Activity in Bagasse Assay (+/−BG) [3]: 94% | IC50 [1, 7]: 1060 µM | IC50 ([1]; averaged IC50 values from Tables 8-11, read-out: measured IC50 of cellobiose (merged values)): 1170 µM | IC50 [1, 8]: 918 µM

B14: R268A: T. reesei CBH I with an R268A substitution (protein, listed as Trichoderma reesei)
chain: B13 chain with R251A, A394R
Tolerance to cellobiose accumulation % Activity in Bagasse Assay (+/−BG) [3]: 86% | IC50 [1, 7]: 574 µM | IC50 [1, 8]: 423 µM

B15: R268K: T. reesei CBH I with an R268K substitution (protein, listed as Trichoderma reesei)
chain: MYRKLAVISAFLATARAQSACTLQSETHPPLTWQKCSSGGTCTQQTGSVVIDANWRWTHATNSSTNCYDGNTWSSTLCPDNETCAKNCCLDGAAYASTYGVTTSGNSLSIGFVTQSAQKNVGARLYLMASDTTYQEFTLLGNEFSFDVDVSQLPCGLNGALYFVSMDADGGVSKYPTNTAGAKYGTGYCDSQCPRDLKFINGQANVEGWEPSSNNANTGIGGHGSCCSEMDIWEANSISEALTPHPCTTVGQEICEGDGCGGTYSDNKYGGTCDPDGCDWNPYRLGNTSFYGPGSSFTLDTTKKLTVVTQFETSGAINRYYVQNGVTFQQPNAELGSYSGNELNDDYCTAEEAEFGGSSFSDKGGLTQFKKATSGGMVLVMSLWDDYYANMLWLDSTYPTNETSSTPGAVRGSCSTSSGVPAQVESQSPNAKVTFSNIKFGPIGSTGNPSGGNPPGGNPPGTTTTRRPATTTGSSPGPTQSHYGQCGGIGYSGPTVCASGTTCQVLNPYYSQCL
Tolerance to cellobiose accumulation % Activity in Bagasse Assay (+/−BG) [3]: 92% | IC50 [1, 7]: 134 µM | IC50 [1, 8]: 93 µM
